Experimental findings from publication PMC5113206 (RNA, 2016) are described below.

Holding throughout (test): pull-down
One assay deals with T1, GST-DHX29 (248–594) (UniProt Q7Z478 248-594).
T1 sequence (looked up): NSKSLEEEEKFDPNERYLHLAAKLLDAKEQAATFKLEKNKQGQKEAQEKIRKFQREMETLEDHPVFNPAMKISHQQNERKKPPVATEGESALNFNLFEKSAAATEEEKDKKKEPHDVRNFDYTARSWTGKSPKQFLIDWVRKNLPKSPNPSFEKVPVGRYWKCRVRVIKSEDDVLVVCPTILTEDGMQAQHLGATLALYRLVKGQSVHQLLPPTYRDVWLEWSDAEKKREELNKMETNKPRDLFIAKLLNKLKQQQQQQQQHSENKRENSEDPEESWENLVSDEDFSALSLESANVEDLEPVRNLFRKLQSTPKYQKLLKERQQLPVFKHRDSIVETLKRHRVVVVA

A further assay deals with T2, DHX29 (FL), His-tagged (UniProt Q7Z478 1-1369).
T2 sequence (looked up): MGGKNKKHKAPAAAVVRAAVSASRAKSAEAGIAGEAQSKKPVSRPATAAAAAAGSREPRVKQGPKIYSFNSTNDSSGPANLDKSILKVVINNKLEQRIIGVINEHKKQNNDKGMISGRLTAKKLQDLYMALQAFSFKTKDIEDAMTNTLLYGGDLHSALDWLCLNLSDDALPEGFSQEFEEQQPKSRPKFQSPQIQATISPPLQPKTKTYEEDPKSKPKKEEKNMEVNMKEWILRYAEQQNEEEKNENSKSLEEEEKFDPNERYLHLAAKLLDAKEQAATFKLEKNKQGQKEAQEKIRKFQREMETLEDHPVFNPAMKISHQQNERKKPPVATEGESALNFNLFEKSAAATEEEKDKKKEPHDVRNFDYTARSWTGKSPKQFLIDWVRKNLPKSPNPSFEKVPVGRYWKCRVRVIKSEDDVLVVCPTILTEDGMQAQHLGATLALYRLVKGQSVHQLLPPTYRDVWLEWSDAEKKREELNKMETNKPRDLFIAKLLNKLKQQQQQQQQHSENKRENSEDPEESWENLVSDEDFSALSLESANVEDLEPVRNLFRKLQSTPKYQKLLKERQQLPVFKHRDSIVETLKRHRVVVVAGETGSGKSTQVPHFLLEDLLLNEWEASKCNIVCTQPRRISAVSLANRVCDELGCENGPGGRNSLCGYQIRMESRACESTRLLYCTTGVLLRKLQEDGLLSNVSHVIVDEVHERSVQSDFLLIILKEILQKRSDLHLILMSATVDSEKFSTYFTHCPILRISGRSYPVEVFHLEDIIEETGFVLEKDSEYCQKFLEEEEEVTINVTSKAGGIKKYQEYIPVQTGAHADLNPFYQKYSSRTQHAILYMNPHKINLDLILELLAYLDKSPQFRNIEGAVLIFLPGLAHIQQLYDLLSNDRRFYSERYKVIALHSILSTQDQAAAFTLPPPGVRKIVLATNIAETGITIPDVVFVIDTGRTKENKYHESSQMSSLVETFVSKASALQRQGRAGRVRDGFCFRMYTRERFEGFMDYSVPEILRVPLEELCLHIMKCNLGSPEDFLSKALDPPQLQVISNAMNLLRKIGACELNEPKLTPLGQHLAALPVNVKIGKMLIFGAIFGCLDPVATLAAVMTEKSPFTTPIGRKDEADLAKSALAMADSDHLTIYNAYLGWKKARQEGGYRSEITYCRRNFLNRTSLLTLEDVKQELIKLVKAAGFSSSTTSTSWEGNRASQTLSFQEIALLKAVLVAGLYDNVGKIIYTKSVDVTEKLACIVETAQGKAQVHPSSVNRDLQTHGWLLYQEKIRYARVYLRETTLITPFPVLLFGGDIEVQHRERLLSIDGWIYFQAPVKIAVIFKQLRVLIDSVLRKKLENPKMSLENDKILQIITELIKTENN

The target in a further assay is GST-eIF3a (783–1382) (human, UniProt Q14152 783-1382).
GST-eIF3a (783–1382), sequence (Q14152 783-1382): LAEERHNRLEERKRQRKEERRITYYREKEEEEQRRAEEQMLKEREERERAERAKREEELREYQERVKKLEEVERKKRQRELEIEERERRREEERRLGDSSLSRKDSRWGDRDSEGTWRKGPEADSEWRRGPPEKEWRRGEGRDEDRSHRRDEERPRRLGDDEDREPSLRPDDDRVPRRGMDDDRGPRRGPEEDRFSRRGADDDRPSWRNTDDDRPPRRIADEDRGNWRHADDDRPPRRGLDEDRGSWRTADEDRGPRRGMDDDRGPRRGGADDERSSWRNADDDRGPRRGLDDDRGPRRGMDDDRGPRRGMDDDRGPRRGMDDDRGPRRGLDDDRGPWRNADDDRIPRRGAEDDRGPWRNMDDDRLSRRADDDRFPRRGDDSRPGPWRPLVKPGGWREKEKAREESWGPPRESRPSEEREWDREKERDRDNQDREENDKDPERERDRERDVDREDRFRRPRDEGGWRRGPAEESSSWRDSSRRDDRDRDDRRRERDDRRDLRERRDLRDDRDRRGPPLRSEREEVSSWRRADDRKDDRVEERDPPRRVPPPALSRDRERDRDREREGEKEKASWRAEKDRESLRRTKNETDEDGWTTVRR

B1: eIF3b (1–300), His-tagged (domain or fragment, murine, UniProt Q8JZQ9 1-300, looked up)
chain: MQDAENVAVPEAAEERAEPARQQPASESPPTDEAAGSGGSEVGQTEDAEEDAEAGPEPEVRAKPAAQSEEETATSPAASPTPQSAERSPSQEPSAPGKAEAVGEQARGHPSAGAEEEGGSDGSAAEAEPRALENGEADEPSFSDPEDFVDDVSEEELLGDVLKDRPQEADGIDSVIVVDNVPQVGPDRLEKLKNVIHKIFSKFGKIINDYYPEEDGKTKGYIFLEYASPAHAVDAVKNADGYKLDKQHTFRVNLFTDFDKYMTISDEWDIPEKQPFKDLGNLRYWLEEAECRDQYSVIFE
For the molecule B1, the binding result with GST-DHX29 (248–594) is recorded as “binds”.

B2: GST-eIF3b (161–264) (domain or fragment, murine, UniProt Q8JZQ9 161-264, looked up)
chain: VLKDRPQEADGIDSVIVVDNVPQVGPDRLEKLKNVIHKIFSKFGKIINDYYPEEDGKTKGYIFLEYASPAHAVDAVKNADGYKLDKQHTFRVNLFTDFDKYMTI
Take B2: the binding result with DHX29 (FL), His-tagged is “binds”.

B3: DHX29 (1–247), His-tagged (domain or fragment, UniProt Q7Z478 1-247, looked up)
chain: MGGKNKKHKAPAAAVVRAAVSASRAKSAEAGIAGEAQSKKPVSRPATAAAAAAGSREPRVKQGPKIYSFNSTNDSSGPANLDKSILKVVINNKLEQRIIGVINEHKKQNNDKGMISGRLTAKKLQDLYMALQAFSFKTKDIEDAMTNTLLYGGDLHSALDWLCLNLSDDALPEGFSQEFEEQQPKSRPKFQSPQIQATISPPLQPKTKTYEEDPKSKPKKEEKNMEVNMKEWILRYAEQQNEEEKNE
B3: the binding result with GST-eIF3a (783–1382) is recorded as “binds”.
